Results published in the Immune Epitope Database (IEDB).

Experiments:
HLA-B*07:02 = test: IEDB peptide-MHC binding, purified MHC/competitive/radioactivity; filed as Kd, often an IC50 or EC50 that approximates it; ≥ and ≤ were set here for values at or beyond the usual limits of such assays
HLA-A*30:02 = test: as above
HLA-A*01:01 = test: as above
HLA-A*26:01 = test: as above
HLA-A*29:02 = test: as above
HLA-A*24:02 = test: as above
HLA-A*23:01 = test: as above
HLA-B*44:03 = test: as above
HLA-B*40:01 = test: as above
HLA-B*44:02 = test: as above
HLA-B*08:01 = test: as above
HLA-A*32:01 = test: as above
HLA-B*27:05 = test: IEDB peptide-MHC binding, purified MHC/direct/fluorescence; filed as Kd, often an IC50 or EC50 that approximates it; ≥ and ≤ were set here for values at or beyond the usual limits of such assays; conditions: source organism: Mammarenavirus juninense
HLA-B*51:01 = test: IEDB peptide-MHC binding, purified MHC/competitive/radioactivity; filed as Kd, often an IC50 or EC50 that approximates it; ≥ and ≤ were set here for values at or beyond the usual limits of such assays; conditions: source organism: Dengue virus 1 Brazil/97-11/1997
HLA-A*30:01 = test: as above
HLA-B*15:01 = test: IEDB peptide-MHC binding, purified MHC/direct/fluorescence; filed as Kd, often an IC50 or EC50 that approximates it; ≥ and ≤ were set here for values at or beyond the usual limits of such assays; conditions: source organism: Yellow fever virus 1899/81
HLA-B*46:01 = test: as above; conditions: source organism: Yellow fever virus 1899/81
[1] = source organism: SARS coronavirus Tor2
[2] = source organism: Dengue virus 4 Philippines/H241/1956
[3] = source organism: Dengue virus 1 Brazil/97-11/1997
[4] = source organism: Dengue virus 2 Jamaica/1409/1983
[5] = source organism: Dengue virus 1 Singapore/S275/1990
[6] = source organism: Vaccinia virus WR
[7] = source organism: Mammarenavirus choriomeningitidis
[8] = source organism: Lymphocytic choriomeningitis virus (strain Armstrong)
[9] = source organism: Mammarenavirus machupoense

## LPVCAPSSA
HLA-B*07:02; source organism: Hepatitis B virus
  Kd: 115 nM

## LYIIKLVFLW
HLA-A*30:02; [1]
  Kd: ≥ 85700 nM
HLA-A*01:01; [1]
  Kd: 13600 nM
HLA-A*26:01; [1]
  Kd: 1170 nM
HLA-A*29:02; [1]
  Kd: ≥ 31800 nM
HLA-A*24:02; [1]
  Kd: 20.9 nM
HLA-A*23:01; [1]
  Kd: 0.165 nM

## NEGIMAVGL
HLA-B*44:03; [2]
  Kd: 1540 nM
HLA-B*40:01; [2]
  Kd: 2260 nM

## NEMGLLETTK
HLA-B*44:03; [3]
  Kd: ≥ 20700 nM
HLA-B*44:02; [3]
  Kd: 1690 nM

## NEPEDIDCW
HLA-B*44:03; [4]
  Kd: 870 nM
HLA-B*44:02; [4]
  Kd: 1080 nM

## NPTTLTASL
HLA-B*07:02; source organism: Dengue virus 4 Dominica/814669/1981
  Kd: 57.3 nM

## NRRKRSVTM
HLA-B*08:01; [3]
  Kd: 6.72 nM

## PNERRAWNFL
HLA-A*32:01; [2]
  Kd: ≥ 25300 nM

## PYNSVTDTI
HLA-A*30:02; [1]
  Kd: ≥ 81100 nM
HLA-A*01:01; [1]
  Kd: ≥ 78100 nM
HLA-A*26:01; [1]
  Kd: ≥ 77900 nM
HLA-A*29:02; [1]
  Kd: 6820 nM
HLA-A*24:02; [1]
  Kd: 7.16 nM
HLA-A*23:01; [1]
  Kd: 20.3 nM

## QEEHKETWHY
HLA-B*44:03; [2]
  Kd: 422 nM
HLA-B*44:02; [2]
  Kd: 685 nM

## RELKCGSGIF
HLA-B*44:03; [3]
  Kd: 151 nM
HLA-B*44:02; [3]
  Kd: 54.8 nM

## RRGLSQFTQ
HLA-B*27:05
  Kd: ≥ 20000 nM

## SAVPVDWVPT
HLA-A*32:01; [3]
  Kd: 18600 nM

## SEGIFSPSEL
HLA-B*44:03; [5]
  Kd: 77.5 nM
HLA-B*44:02; [5]
  Kd: 66.3 nM
HLA-B*40:01; [5]
  Kd: 5.6 nM

## SKKTRISDL
HLA-B*08:01; source organism: Cowpox virus
  Kd: 2.76 nM

## SLGCKPLTM
HLA-B*08:01; [5]
  Kd: 169 nM

## SLLRKFLYC
HLA-B*08:01; [6]
  Kd: 701 nM

## SLQQRLEDL
HLA-B*08:01; [6]
  Kd: 158 nM

## SLSAVSVHI
HLA-A*32:01; [6]
  Kd: 33.9 nM

## SMFTLRHII
HLA-A*32:01; [6]
  Kd: 82.8 nM
HLA-B*08:01; [6]
  Kd: 1.81 nM

## SPMGKLTFF
HLA-B*08:01; [6]
  Kd: 262 nM

## TPMLRHSIEN
HLA-B*07:02; [4]
  Kd: 507 nM

## TPQDNQLAYV
HLA-B*07:02; [3]
  Kd: 330 nM
HLA-B*51:01
  Kd: 14600 nM

## TTDVKAAVI
HLA-A*32:01; [7]
  Kd: ≥ 77800 nM
HLA-A*30:02; [7]
  Kd: ≥ 23700 nM
HLA-A*01:01; [7]
  Kd: 955 nM
HLA-A*26:01; [7]
  Kd: ≥ 77900 nM
HLA-A*29:02; [7]
  Kd: 10400 nM
HLA-A*30:01; [7]
  Kd: ≥ 72200 nM

## TTWALCESI
HLA-A*32:01; [3]
  Kd: 293 nM

## VCLSGEGWPY
HLA-A*32:01; [8]
  Kd: ≥ 26100 nM
HLA-A*26:01; [8]
  Kd: ≥ 69700 nM
HLA-A*24:02; [8]
  Kd: ≥ 70300 nM
HLA-A*30:01; [8]
  Kd: ≥ 33200 nM
HLA-A*23:01; [8]
  Kd: ≥ 70000 nM

## VEMGEAAGIF
HLA-B*44:03; [4]
  Kd: 592 nM
HLA-B*44:02; [4]
  Kd: 39.2 nM
HLA-B*40:01; [4]
  Kd: 1150 nM

## VGIPTHRHL
HLA-A*30:02; [9]
  Kd: 14300 nM
HLA-A*01:01; [9]
  Kd: ≥ 69400 nM
HLA-A*26:01; [9]
  Kd: ≥ 77900 nM
HLA-A*29:02; [9]
  Kd: ≥ 78900 nM
HLA-A*24:02; [9]
  Kd: ≥ 40300 nM
HLA-A*23:01; [9]
  Kd: 14000 nM

## VMMSAPPAEY
HLA-A*30:02; [1]
  Kd: 4.31 nM
HLA-A*01:01; [1]
  Kd: 154 nM
HLA-A*26:01; [1]
  Kd: 9020 nM
HLA-A*29:02; [1]
  Kd: 3.16 nM
HLA-A*24:02; [1]
  Kd: ≥ 35600 nM
HLA-A*23:01; [1]
  Kd: ≥ 39900 nM

## VYMDAVFEY
HLA-B*15:01
  Kd: 600 nM
HLA-B*46:01
  Kd: ≥ 20000 nM

## WELVDKERNL
HLA-B*40:01; source organism: Dengue virus 2 Peru/IQT2913/1996
  Kd: 222 nM

## WELVDRERNL
HLA-B*40:01; [4]
  Kd: 116 nM

## YLLSLFSTL
HLA-B*08:01; [6]
  Kd: 4.02 nM

## YLMLLFAAM
HLA-B*08:01; [6]
  Kd: 138 nM

## YLRTKPASA
HLA-B*08:01; [6]
  Kd: 1.48 nM

## YSNRNRFLY
HLA-A*30:02; [1]
  Kd: 0.453 nM
HLA-A*01:01; [1]
  Kd: 2.9 nM
HLA-A*26:01; [1]
  Kd: 1470 nM
HLA-A*29:02; [1]
  Kd: 0.588 nM
HLA-A*24:02; [1]
  Kd: 3040 nM
HLA-A*23:01; [1]
  Kd: 5690 nM

## YTTTIKPVSY
HLA-A*30:02; [1]
  Kd: 1020 nM
HLA-A*01:01; [1]
  Kd: 41.6 nM
HLA-A*26:01; [1]
  Kd: 878 nM
HLA-A*29:02; [1]
  Kd: 31.6 nM
HLA-A*24:02; [1]
  Kd: ≥ 70300 nM
HLA-A*23:01; [1]
  Kd: ≥ 70000 nM
